# Source: the supplement of paper PMC9732359
# ± gives the uncertainty stated by the source.
# Assay: protein stability index of a GFP-peptide fusion (yeast GPS) (PSI 1-4); higher = more stable; sorted into four equal gates, so the index is relative within each strain
# Details: san1∆
# Summary of the method: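 Mid-log yeast cultures in leucine-free medium, carrying a pooled plasmid library, were sorted into four equal gates by their GFP/Cherry fluorescence ratio. Each plasmid expressed Cherry along with GFP fused upstream of a tiled 17-residue yeast protein peptide. Plasmids recovered from each gate were PCR-amplified and Illumina-sequenced, with reads assigned to strains by barcodes. The protein stability index was obtained by summing each gate's read frequency weighted by its gate number.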
row,Sequence,protein stability index
1,KFKKEKFDIIIVDTSGR [SRP54],2.95 ± 0.034
2,KFNNTQRESQIGAAELN [SNF12],2.87 ± 0.057
3,KGDGMTSAVASIGSIYQ [RPN1],2.57 ± 0.23
4,KGDINPEVSMIRDIREK [RPB2],3.4 ± 0.075
5,KGGIIASVGDILKTLER [YML031W/NDC1],3.32 ± 0.092
6,KGGSLYGLGLIYAGFGR [RPN2],2.35 ± 0.063
7,KGKARLGTLVNQKTSAV [RPL8A],3.15 ± 0.083
8,KGSRQCRVCSSHTGLIR [RPS29A],2.62 ± 0.055
9,KGSRQCRVCSSHTGLVR [RPS29B],2.66 ± 0.056
10,KGVLLYGPPGTGKTLLA [RPT4],2.57 ± 0.048
11,KGYLQRGDDGESYAYLA [CDC53],3.21 ± 0.033
12,KHGAVHLSTYLKVYKVG [RPL21A],1.27 ± 0.2
13,KIAKRRQVYKPVLDNPF [POP3],1.99 ± 0.11
14,KIALGSPIVNVLEDVYR [RRI2],2.31 ± 0.15
15,KIEGVATPQEAQFYLGK [RPL33B],2.91 ± 0.091
16,KIESEDDYILSGESVMD [SRB4],3.38 ± 0.15
17,KIINTHSDMASKMYNTD [PRP8],2.77 ± 0.05
18,KIIPKDISATQLPKQLW [ITC1],2.45 ± 0.12
19,KIKAILESVGIEIEDEK [RPP2A],2.8 ± 0.11
20,KINQERLERRINLTKVT [CSI1],1.4 ± 0.095
21,KIPILAQHESFLRQKIC [RPN9],1.85 ± 0.076
22,KIRARSITLQGDVYDPE [SMC2],1.79 ± 0.16
23,KISNSEFFNPEIFHLLQ [SIN4],1.61 ± 0.087
24,KITAKTQHEEEEEQDTG [IRR1],2.82 ± 0.22
25,KIYKLENGERKLYDAKR [YMR129W/POM152],3.21 ± 0.065

row,Sequence,protein stability index
1,KKAVVKGTNGKKALKVR [RPL25],1.91 ± 0.11
2,KKCIDFFEMLISKSLTF [RRI2],1.96 ± 0.061
3,KKDIKIGTNDLFQVESA [SIR4],2.88 ± 0.07
4,KKDQSVLKSHSNDFEEG [YMR129W/POM152],3.07 ± 0.071
5,KKENLTRDETVSLIKKY [YML103C/NUP188],2.55 ± 0.096
6,KKFNMGKEFEARNLIED [RPC53],3.04 ± 0.083
7,KKIGCYMFANLEFSIYH [CSN12],2.98 ± 0.06
8,KKISRLPKFLTVQYVRF [UBP6],1.28 ± 0.08
9,KKIVDSKKLNLKIHQSH [YMR129W/POM152],2.44 ± 0.17
10,KKKKKGSNQKPKYEPPV [RPT2],2.38 ± 0.22
11,KKKQQGAKQTQGGAMNK [SRP72],3.37 ± 0.082
12,KKKRSRTSATREDTPLS [ISW2],3.45 ± 0.058
13,KKKTTLEDFENFKGLAK [YIL149C/MLP2],2.957 ± 0.024
14,KKLKPIVAKYDPPIIIF [PRP28],2.73 ± 0.086
15,KKLLINKDASLALQRGA [DPB4],2.44 ± 0.17
16,KKMDDYIHRIGRTGRAA [PRP28],3.27 ± 0.045
17,KKNPNWLEEYHPKLIKN [FAS1],1.97 ± 0.084
18,KKQKLIEEQDKKVQALQ [ITC1],2.61 ± 0.087
19,KKSEEKLREKVNDVELA [MTW1],3.05 ± 0.14
20,KKSKKKWSKKSMKDRAQ [RPS25A],3.36 ± 0.087
21,KKSQCKKKTTLEDFENF [YIL149C/MLP2],3.08 ± 0.04
22,KKSVLKQVQDFEENDHP [COR1],2.81 ± 0.098
23,KKWKKYWQYKAGIPIGL [SWP82],2.61 ± 0.11
24,KKWNDLKNKNFKCQEKD [SIR2],3.37 ± 0.072
25,KLHVNWNLNATKPNVLN [SIN4],2.85 ± 0.11

# Same assay, conditions: ubr1∆
row,Sequence,protein stability index
1,IVKASNWRLVEVGRVVL [RPL14A],1.69 ± 0.089
